Experimental data: article PMC6616073 (Frontiers in Pharmacology, 2003)
Positions of bridges follow the written chain, without caps; N, C: chain ends. No end group written: not given here.

Legend:
Assay in all cases: radioligand binding
[1] = target: T1, ligand-binding domain of the human nAChR α9 subunit (human, UniProt Q9UGM1 23-238); conditions: both partners purified
T1 construct: also called α9 LBD; human α9 LBD

[2] = target: T2, human α7 nicotinic acetylcholine receptor stably expressed in the rat pituitary tumor-derived cell line GH4C1 (human, UniProt P36544 23-502); conditions: one partner purified
T2 construct: also called α7 nAChR; human α7 nAChR
T2 sequence (P36544 23-502): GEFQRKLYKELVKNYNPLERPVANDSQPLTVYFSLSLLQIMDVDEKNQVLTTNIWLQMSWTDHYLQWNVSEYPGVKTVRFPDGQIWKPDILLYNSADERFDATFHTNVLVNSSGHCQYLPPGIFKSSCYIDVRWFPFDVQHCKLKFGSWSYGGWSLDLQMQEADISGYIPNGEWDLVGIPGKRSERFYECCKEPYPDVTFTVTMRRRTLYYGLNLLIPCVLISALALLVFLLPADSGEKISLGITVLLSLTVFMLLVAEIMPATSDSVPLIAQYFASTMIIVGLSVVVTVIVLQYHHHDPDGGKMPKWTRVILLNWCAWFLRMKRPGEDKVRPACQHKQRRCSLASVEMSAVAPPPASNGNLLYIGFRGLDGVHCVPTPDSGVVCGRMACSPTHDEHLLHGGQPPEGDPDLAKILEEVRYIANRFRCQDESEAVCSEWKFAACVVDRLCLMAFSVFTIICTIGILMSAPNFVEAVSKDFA

[3] = target: T3, membrane-bound Torpedo californica nicotinic acetylcholine receptor (Torpedo californica); conditions: one partner purified
T3 construct: also called T. californica nAChR; Torpedo nAChR
T3 sequence (P02710 25-461 limits assumed, chain 1 of 4): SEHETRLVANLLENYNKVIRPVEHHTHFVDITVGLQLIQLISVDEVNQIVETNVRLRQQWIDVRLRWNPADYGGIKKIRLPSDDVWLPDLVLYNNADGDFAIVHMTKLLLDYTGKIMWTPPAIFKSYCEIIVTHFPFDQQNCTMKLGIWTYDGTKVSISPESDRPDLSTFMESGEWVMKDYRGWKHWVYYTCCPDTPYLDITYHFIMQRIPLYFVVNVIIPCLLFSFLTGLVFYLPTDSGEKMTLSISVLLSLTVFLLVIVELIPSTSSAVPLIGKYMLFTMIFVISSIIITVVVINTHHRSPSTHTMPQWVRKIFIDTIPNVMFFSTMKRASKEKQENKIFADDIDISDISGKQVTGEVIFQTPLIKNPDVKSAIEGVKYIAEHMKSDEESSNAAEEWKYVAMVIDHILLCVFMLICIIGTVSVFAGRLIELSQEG
T3 sequence (P02712 25-493 limits assumed, chain 2 of 4, further chain): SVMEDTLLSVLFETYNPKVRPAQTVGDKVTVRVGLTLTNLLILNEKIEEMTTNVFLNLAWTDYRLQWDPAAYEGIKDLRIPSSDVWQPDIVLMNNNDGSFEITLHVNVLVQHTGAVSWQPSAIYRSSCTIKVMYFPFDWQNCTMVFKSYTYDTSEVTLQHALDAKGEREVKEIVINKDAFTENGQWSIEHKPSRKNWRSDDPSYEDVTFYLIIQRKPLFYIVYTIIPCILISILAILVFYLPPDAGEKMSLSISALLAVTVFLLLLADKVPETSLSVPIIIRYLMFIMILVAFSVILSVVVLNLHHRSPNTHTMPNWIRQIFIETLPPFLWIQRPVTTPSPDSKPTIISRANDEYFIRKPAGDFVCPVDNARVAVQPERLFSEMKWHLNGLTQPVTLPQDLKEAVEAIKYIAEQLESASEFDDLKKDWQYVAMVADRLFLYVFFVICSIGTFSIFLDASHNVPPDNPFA
T3 sequence (P02714 18-506 limits assumed, chain 3 of 4, further chain): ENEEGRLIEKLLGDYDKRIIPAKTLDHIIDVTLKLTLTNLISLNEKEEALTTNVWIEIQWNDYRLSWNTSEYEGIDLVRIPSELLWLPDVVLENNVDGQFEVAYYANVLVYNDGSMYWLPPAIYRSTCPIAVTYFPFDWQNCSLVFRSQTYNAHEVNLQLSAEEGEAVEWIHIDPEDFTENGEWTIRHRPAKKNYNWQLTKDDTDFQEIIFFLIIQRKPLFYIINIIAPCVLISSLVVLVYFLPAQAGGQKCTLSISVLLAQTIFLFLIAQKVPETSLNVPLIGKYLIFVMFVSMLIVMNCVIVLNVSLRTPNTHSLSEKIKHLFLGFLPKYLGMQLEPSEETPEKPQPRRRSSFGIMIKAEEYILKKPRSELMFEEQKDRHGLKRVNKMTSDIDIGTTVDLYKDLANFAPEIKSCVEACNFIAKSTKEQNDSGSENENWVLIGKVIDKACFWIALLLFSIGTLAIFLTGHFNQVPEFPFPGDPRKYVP
T3 sequence (P02718 22-522 limits assumed, chain 4 of 4, further chain): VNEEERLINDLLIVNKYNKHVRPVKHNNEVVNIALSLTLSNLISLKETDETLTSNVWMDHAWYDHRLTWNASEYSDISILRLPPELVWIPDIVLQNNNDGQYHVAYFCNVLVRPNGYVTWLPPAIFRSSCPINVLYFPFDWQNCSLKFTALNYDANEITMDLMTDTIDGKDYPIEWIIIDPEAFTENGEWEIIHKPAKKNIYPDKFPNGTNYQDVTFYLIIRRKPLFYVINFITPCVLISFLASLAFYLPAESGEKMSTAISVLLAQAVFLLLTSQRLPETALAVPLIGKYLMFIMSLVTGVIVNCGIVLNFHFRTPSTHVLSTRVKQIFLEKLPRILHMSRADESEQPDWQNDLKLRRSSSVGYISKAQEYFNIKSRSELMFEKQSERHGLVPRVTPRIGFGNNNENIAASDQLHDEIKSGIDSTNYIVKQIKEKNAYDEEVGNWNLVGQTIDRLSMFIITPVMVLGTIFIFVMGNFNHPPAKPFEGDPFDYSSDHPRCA

[4] = target: T2, human α7 nicotinic acetylcholine …; conditions: one partner purified; remark: listed apart in the source

T1 sequence (Q9UGM1 23-238): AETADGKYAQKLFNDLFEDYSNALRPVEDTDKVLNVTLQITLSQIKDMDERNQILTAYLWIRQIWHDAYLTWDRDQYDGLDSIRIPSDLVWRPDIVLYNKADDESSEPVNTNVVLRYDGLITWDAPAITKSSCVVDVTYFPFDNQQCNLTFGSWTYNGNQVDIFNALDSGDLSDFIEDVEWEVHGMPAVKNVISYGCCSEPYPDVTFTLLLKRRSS

Binder | IC50 [1] | IC50 [2] | IC50 [3] | IC50 [4]
TTRTYYTPTRMKVSK (also called Lynx1 linear fragment (2); peptide 2) [Lynx1 linear (2), synthetic 15-membered loop II fragment of human Lynx1] | 40.7 µM |  |  | 
CTRTYYTPTRMC (not fully specified (bridges); cysteine pairing not given here, also called peptide 3; cyclic shorter form of Lynx1 fragment) [Lynx1 short (3), shorter loop II fragment of human Lynx1 with terminal Cys, disulfide-cyclised] |  | 58.9 µM |  | 
CTRTYYTPTRMC (also called Lynx1 linear short (4); peptide 4) [Lynx1 short linear (4), shorter loop II fragment of human Lynx1 with free terminal Cys] |  | 69.2 µM |  | 
CKMVRHQRSPYEVVRRMC (disulfide 1-18) | 41.7 µM | 13.1 µM | 7.4 µM | 
CTTRTYYTPTRMKVSKC (not fully specified (bridges); cysteine pairing not given here, also called Lynx1 fragment (1); peptide 1) | 41.7 µM | 173 µM |  | 148 µM
